In patent US20080254027A1 (published 2008) one finds Kd data, which are given here for 1 molecule.

The target in the experiment is T1, CD5-His-GST (human, UniProt P06127 25-372).
T1 sequence: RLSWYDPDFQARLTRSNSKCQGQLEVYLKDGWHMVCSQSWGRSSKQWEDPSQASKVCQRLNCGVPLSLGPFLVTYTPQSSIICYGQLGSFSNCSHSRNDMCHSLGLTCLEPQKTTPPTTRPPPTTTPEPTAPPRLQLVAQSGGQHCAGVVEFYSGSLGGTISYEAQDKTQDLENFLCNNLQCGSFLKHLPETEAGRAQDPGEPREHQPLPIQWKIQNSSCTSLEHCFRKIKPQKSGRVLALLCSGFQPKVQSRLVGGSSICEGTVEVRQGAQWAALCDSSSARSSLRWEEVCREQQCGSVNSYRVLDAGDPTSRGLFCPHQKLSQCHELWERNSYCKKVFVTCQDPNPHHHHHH
The experiment can be described thus: Biacore. (Surface plasmon resonance follows binding to a sensor surface in real time, without labels.)

B1: 5D7_H0L0_IgG1_WT (antibody, V domains shown)
VH: QVTLKESGPGILKPSQTLSLTCSFSGFSLSTSGMGVGWIRQPSGKGLEWLAHIWWDDDVYYNPSLKNQLTISKDASRDQVFLKITNLDTADTATYYCVRRRATGTGFDYWGQGTTLTVSS
VL: NIVMTQSHKFMSTSVGDRVSIACKASQDVGTAVAWYQQKPGQSPKLLIYWTSTRHTGVPDRFTGSGSGTDFTLTITNVQSEDLADYFCHQYNSYNTFGSGTRLELKR
B1: the Kd – broadly, the equilibrium constant for the complex coming apart – was about 1.5 nM.
